In patent US20220177457A1, “SMALL MOLECULES THAT BIND CYCLIN-DEPENDENT KINASE INHIBITOR 1B (P27KIP1)” (St. Jude Children's Hospital, Inc., priority 2019, published 2022):

Columns and labels:
[1] = target: T1, Cdk2/cyclin A (Homo sapiens, UniProt P24941); assay: Isothermal titration calorimetry of p27 variants into Cdk2/cyclin A; conditions: ITC at 25° C., binding to Cdk2/cyclin A
T1 construct: Full length human Cdk2; made in house
Method: (§1) ITC experiments were performed using a MicroCal ITC200 calorimeter with p27 variants in the syringe and Cdk2/cyclin A and Cdk2, respectively, in the cell. Prior to each set of experiments, protein samples were extensively dialyzed together against ITC buffer containing 20 mM HEPES, pH 7.5, 300 mM NaCl, 5 mM TCEP. A standard titration consisted of 19 injections of 2-μl of p27 variant (100 μM) into a solution of Cdk2/cyclin A (10 μM) or Cdk2 (10 μM), respectively. The time interval between injections was 180 s. Experiments were performed at 25° C. Thermodynamic parameters were obtained by fitting the raw data using Origin software (OriginLab) according to the manufacturers instructions using a 1:1 binding model to obtain values of the enthalpy of binding (ΔH), Gibbs free energy of binding (ΔG), entropy of binding (ΔS), and stoichiometry factor (N). Experiments were performed in triplicate and mean and standard deviations of the mean values of these parameters are reported.

[2] = target: T2, Cdk2 (Homo sapiens, UniProt P24941); assay: Isothermal titration calorimetry of p27 variants into Cdk2; conditions: ITC at 25° C., binding to Cdk2
T2 construct: Full length human Cdk2; made in house
Method: as §1

[3] = target: T1, Cdk2/cyclin A; assay: Cdk2/cyclin A kinase activity assay (32P incorporation into Histone H1); format: biochemical; conditions: Histone H1 as substrate; read-out: Half maximal Cdk2/cyclin A inhibitory concentration (IC50)
Method: Cdk2/Cyclin A ([…]) was mixed with Histone H1 (50 μM; EMD Millipore) and varied amounts of p27 constructs and incubated for 3 hours at 4° C. […] IC50 values were determined by curve fitting using GraphPad Prizm 7 software. Experiments were performed in triplicate and mean IC50 and standard deviations of the mean values are reported.

[4] = target: p27-KID (Homo sapiens, UniProt P46527); assay: 2D 1H-15N HSQC NMR screening and titration of compounds into 15N-p27-KID; conditions: read-out: Kd (from CSP); single-site binding model fitted to chemical shift perturbation; 298 K, pH 6.5
Sequence of p27-KID (P46527 22-105): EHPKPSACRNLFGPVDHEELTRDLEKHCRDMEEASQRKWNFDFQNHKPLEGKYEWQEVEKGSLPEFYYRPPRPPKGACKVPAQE
Method: Two-dimensional (2D)^1H-^15N HSQC NMR experiments were performed using a SampleJet sample changer. […] Chemical shift perturbation values were quantified using the equation Δδ=√{square root over (ΔδH^2+(0.2ΔδN)^2)}. The statistical significance was based on a threshold defined as the average CSP value plus two times the standard deviation of the mean (Δδave+2σ).

## p27-D2: D2 sub-domain of p27, residues 58-105 of human p27 (RKWNFDFQNHKPLEGKYEWQEVEKGSLPEFYYRPPRPPKGACKVPAQE; UniProt P46527 58-105, looked up, fragment)
[1]
  Kd: 134 ± 23.5 nM
  ΔG: -9.4 ± 0.1 kcal/mol
  ΔH: -24.7 ± 1.8 kcal/mol
  −TΔS: 15.3 ± 1.9 kcal/mol
[2]
  Kd: 230 ± 67.4 nM
  ΔG: -9.1 ± 0.2 kcal/mol
  ΔH: -24.5 ± 0.7 kcal/mol
  −TΔS: 15.4 ± 0.9 kcal/mol
[3]
  IC50: 67 ± 22 nM

## O=c1oc2cc(OCCO)ccc2c2c1CCCC2 [SJ710]
[4]
  Kd: 4.8 ± 1.3 mM
